Reference: patent US20250215073A1 (TOKUSHIMA UNIVERSITY, published 2025)

T1: FLT4-Fc (fusion product of the extracellular region of the human FLT4 protein and mouse antibody Fc) (human; mouse, UniProt P35916 25-775)
T1 construct: extracellular domain; Negative control antigen in the EIA
T1 sequence (looked up): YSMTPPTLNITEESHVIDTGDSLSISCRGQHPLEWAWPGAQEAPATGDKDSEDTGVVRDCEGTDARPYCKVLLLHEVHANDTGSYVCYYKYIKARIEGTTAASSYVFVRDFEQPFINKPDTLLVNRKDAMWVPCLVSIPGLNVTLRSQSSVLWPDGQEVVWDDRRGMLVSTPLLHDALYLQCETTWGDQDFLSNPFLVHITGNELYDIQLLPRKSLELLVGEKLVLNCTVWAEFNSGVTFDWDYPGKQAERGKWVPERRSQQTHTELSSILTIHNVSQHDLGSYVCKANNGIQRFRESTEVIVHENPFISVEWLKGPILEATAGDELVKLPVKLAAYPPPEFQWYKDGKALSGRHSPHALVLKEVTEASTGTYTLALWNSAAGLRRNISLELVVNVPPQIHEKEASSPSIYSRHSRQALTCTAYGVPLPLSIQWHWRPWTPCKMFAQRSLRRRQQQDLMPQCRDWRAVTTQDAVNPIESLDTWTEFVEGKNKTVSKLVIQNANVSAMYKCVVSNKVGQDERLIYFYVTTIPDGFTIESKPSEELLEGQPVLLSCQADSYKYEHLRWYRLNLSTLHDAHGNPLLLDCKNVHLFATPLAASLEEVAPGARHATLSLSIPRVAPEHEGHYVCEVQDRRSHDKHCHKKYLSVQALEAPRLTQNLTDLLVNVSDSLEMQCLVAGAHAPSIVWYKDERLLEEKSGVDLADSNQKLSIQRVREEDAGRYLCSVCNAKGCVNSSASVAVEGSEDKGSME


How the values were obtained:
[1] = target: T2, human c-KIT (human, UniProt P10721 26-976); assay: flow cytometry on fixed GIST-T1 cells, 10 µg antibody
T2 construct: whole, on cells; Endogenous c-KIT of the GIST cell line GIST-T1 and the small cell lung cancer line SY; also called c-KIT on GIST-T1 cells; c-KIT on SCLC cell line SY
Experimental: GIST-T1 cells were collected with trypsin (on ice), and 1×10⁶ cells were dispensed into 1.5 mL tubes. The cells were washed three times with 1 mL of PBS-BSA-Azide. To each tube, 1 mL of 4% paraformaldehyde cooled to 4° C. was added and mixed by gentle pipetting on ice. The tubes were returned to room temperature and left to stand for 15 minutes (the subsequent process was carried out at room temperature). The cells were washed three times with 1 mL of PBS-BSA-Azide.
To GIST-T1 cell pellets, 100 μL of each antibody solution prepared with PBS-BSA-Azide was added and mixed. The mixtures were prepared to contain 10 μg of the IR700-labeled mouse anti-c-KIT (12A8) antibody, 10 μg of the IR700-labeled humanized anti-c-KIT (12A8) IgG1 antibody, and 10 μg of the IR700-labeled humanized anti-c-KIT (12A8) Fab antibody, respectively. Each mixture was covered with aluminum foil in the dark and allowed to react at room temperature (from 20° C. to 25° C.) for 60 minutes (the subsequent process was carried out in the dark as much as possible). Washing was performed three times by adding 1 mL of PBS-BSA-Azide. After adding 500 μL of PBS-BSA-Azide and mixing, each mixture was passed through a filter (42-μm nylon mesh, AS ONE Corporation). Measurement was performed using FACS (CytoFLEX (Beckman Coulter)) with excitation at 638 nm and 712/25BP.

[2] = target: T1, FLT4-Fc (fusion product of the …); assay: EIA, antigen solid-phased in 96-well plate, HRP anti-human Kappa detection
From the text: Since the antigen recognition site of the anti-c-KIT (12A8) antibody is the extracellular region of the human c-KIT protein, a fusion protein (c-KIT-Fc) of the c-KIT extracellular region and the Fc region of the mouse antibody was used as the antigen for EIA. A fusion product of the extracellular region of the human FLT4 protein and mouse antibody Fc (FLT4-Fc) was used as a negative control.
Each above was solid-phased in a 96-well plate, blocked with a BSA solution, washed, sufficiently dried, and then stored in a refrigerator until use. The humanized anti-c-KIT (12A8) IgG1 antibody-producing clone culture supernatant was diluted 2-fold to 64-fold and added to an antigen solid-phase plate and a negative control plate so as to perform a primary reaction. The same was performed for the humanized anti-c-KIT (12A8) Fab antibody. The primary reaction was carried out for one hour at room temperature, and then each well was washed with phosphate-buffered saline (PBS). The HRP-labeled anti-human Kappa chain antibody was added as a secondary antibody and reacted for 30 minutes at room temperature. Thereafter, each well was washed with PBS, and the substrate OPD (Sigma-Aldrich) was added to develop a color. IN sulfuric acid was added to stop the reaction, and the absorbance at 490 nm was measured.

T2 sequence (P10721 26-976): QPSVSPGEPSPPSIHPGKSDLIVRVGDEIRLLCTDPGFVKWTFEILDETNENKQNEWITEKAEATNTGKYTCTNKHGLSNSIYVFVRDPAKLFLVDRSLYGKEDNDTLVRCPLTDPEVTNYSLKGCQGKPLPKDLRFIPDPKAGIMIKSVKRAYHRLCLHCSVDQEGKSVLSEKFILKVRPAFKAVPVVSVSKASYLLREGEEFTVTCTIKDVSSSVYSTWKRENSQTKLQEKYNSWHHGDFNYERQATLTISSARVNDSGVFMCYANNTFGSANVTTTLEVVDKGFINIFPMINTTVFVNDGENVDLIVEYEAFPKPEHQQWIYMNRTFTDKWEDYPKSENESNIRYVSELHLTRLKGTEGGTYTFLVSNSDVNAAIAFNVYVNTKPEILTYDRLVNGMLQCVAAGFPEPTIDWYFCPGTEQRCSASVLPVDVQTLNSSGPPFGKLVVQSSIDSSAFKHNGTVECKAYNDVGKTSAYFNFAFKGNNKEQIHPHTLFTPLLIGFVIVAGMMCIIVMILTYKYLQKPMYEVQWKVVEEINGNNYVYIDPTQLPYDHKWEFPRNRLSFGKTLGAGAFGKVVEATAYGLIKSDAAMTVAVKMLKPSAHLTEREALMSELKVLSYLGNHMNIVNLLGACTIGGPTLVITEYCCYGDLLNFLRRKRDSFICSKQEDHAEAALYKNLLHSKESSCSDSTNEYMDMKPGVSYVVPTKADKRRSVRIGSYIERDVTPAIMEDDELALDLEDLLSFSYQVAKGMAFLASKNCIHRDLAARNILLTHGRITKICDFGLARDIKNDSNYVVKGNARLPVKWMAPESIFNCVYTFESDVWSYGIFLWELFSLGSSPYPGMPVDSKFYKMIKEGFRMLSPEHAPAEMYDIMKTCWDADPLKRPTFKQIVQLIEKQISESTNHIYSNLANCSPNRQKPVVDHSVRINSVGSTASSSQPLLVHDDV

Binder	binding result [1]	binding result [2]
IR700-labeled mouse anti-c-KIT (12A8) antibody (whole IgG) (antibody, V domains shown, IR700 (IRDye700DX) conjugated, residues not stated, Mouse IgG1 12A8 conjugated with IRDye700DX; also called IR700-12A8 (whole IgG); IR700-12A8 Whole IgG) VH: EVQLQQSGPELVKTGTSVKISCKASGYSFSNYYMHWVKQSHGKSLEWIGYISCFNGATTYNQKFRGKATFTVDTSSSTTYMQFNSLTSEDSAVYFCARRTAGAMDYWGQGTSVTVSS VL: EVVVTQTPLSLPVSFGDQVSISCRSSQSLANSYGNTYLSWYLHKPGQSPQLLIYGISNRFSGVPDRFSGSGSGTEFTLEISTIKPEDLGMYYCLQGTHQPYTFGGGTKLEIKR	binds	–
IR700-labeled humanized anti-c-KIT (12A8) Fab antibody (Fab, V domains shown, IR700 (IRDye700DX) conjugated, residues not stated, The Fab was purified on Kan Cap G before labeling; also called Humanized Fab) VH: QVQLVQSGAEVKKPGASVKVSCKASGYSFSNYYMHWVRQAPGQRLEWMGYISCFNGATTYNQKFRGRVTITRDTSASTAYMELSSLRSEDTAVYYCARRTAGAMDYWGQGTLVTVSS VL: DIVMTQTPLSLSVTPGQPASISCRSSQSLANSYGNTYLSWYLQKPGQSPQLLIYGISNRFSGVPDRFSGSGSGTDFTLKISRVEAEDVGVYYCLQGTHQPYTFGGGTKVEIKR	binds	–
humanized anti-c-KIT (12A8) Fab antibody (Fab, V domains shown, Recombinant Fab, tested in the EIA as CHO-K1 culture supernatant; also called Fab fragment of the humanized anti-c-KIT (12A8) antibody) VH: QVQLVQSGAEVKKPGASVKVSCKASGYSFSNYYMHWVRQAPGQRLEWMGYISCFNGATTYNQKFRGRVTITRDTSASTAYMELSSLRSEDTAVYYCARRTAGAMDYWGQGTLVTVSS VL: DIVMTQTPLSLSVTPGQPASISCRSSQSLANSYGNTYLSWYLQKPGQSPQLLIYGISNRFSGVPDRFSGSGSGTDFTLKISRVEAEDVGVYYCLQGTHQPYTFGGGTKVEIKR	–	no binding

The next lines start with the values.

binding result [1]	binding result [2]	Binder
binds	–	IR700-labeled humanized anti-c-KIT (12A8) IgG1 antibody (antibody, V domains shown, IR700 (IRDye700DX) conjugated, residues not stated, The antibody was purified on protein A before labeling; also called Humanized Whole IgG) VH: QVQLVQSGAEVKKPGASVKVSCKASGYSFSNYYMHWVRQAPGQRLEWMGYISCFNGATTYNQKFRGRVTITRDTSASTAYMELSSLRSEDTAVYYCARRTAGAMDYWGQGTLVTVSS VL: DIVMTQTPLSLSVTPGQPASISCRSSQSLANSYGNTYLSWYLQKPGQSPQLLIYGISNRFSGVPDRFSGSGSGTDFTLKISRVEAEDVGVYYCLQGTHQPYTFGGGTKVEIKR
–	no binding	humanized anti-c-KIT (12A8) IgG1 antibody (antibody, V domains shown, Human IgG1 / kappa, tested in the EIA as CHO-K1 culture supernatant; also called humanized c-KIT (12A8) IgG1; humanized anti-c-KIT (12A8) antibody (whole IgG)) VH: QVQLVQSGAEVKKPGASVKVSCKASGYSFSNYYMHWVRQAPGQRLEWMGYISCFNGATTYNQKFRGRVTITRDTSASTAYMELSSLRSEDTAVYYCARRTAGAMDYWGQGTLVTVSS VL: DIVMTQTPLSLSVTPGQPASISCRSSQSLANSYGNTYLSWYLQKPGQSPQLLIYGISNRFSGVPDRFSGSGSGTDFTLKISRVEAEDVGVYYCLQGTHQPYTFGGGTKVEIKR
